{
  "source": "patent US20200197485A1",
  "biological_target": "Siglec-10Fc (human) (UniProt Q96LC7)",
  "sequence (Q96LC7 17-546)": "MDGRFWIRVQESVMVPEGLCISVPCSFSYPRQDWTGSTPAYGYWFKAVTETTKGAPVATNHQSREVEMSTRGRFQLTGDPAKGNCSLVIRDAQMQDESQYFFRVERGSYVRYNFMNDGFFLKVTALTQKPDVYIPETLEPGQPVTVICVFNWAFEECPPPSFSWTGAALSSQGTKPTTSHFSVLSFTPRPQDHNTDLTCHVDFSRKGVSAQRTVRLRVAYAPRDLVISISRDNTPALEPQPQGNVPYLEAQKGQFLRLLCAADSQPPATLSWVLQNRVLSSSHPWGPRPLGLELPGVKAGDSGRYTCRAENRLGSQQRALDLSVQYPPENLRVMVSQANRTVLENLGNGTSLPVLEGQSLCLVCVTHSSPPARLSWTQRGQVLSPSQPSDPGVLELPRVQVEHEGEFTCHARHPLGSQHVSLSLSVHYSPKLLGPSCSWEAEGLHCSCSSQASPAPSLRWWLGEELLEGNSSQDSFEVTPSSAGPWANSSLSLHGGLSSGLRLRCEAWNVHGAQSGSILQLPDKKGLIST",
  "assay": "Biacore (SPR): value printed under the KD line for the control Fc with Siglec-10Fc. No curve is drawn for the control Fc.",
  "data": [
    {"substance": "control Fc", "values": [
      {"measurement": "Kd", "result": 16.2, "unit": "µM"}
    ]}
  ]
}
